Assay results published in EP1224222B1 (ChemoCentryx, Inc., dated 2010).

Molecular target: T1, human CCX CKR with N-terminal Flag epitope, stably expressed on HEK293 cells (human, UniProt Q9NPB9 1-350)
T1 construct: also called HEK293-CCX CKR cells
T1 sequence: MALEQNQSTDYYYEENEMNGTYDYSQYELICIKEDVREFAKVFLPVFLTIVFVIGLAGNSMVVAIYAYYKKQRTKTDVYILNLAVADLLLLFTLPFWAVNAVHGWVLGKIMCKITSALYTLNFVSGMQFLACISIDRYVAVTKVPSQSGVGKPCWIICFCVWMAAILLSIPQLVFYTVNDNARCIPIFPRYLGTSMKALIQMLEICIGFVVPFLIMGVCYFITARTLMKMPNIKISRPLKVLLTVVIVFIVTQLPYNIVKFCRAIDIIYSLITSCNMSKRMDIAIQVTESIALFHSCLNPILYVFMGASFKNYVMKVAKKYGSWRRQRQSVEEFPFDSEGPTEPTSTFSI
Assay: radioligand binding competition on CCX CKR stable transfectants (similar experiments)

- Kd: ~9 nM
B1: murine CTACK (ligand, UniProt Q9Z1X0 26-120, looked up)
chain: LPLPSSTSCCTQLYRQPLPSRLLRRIVHMELQEADGDCHLQAVVLHLARRSVCVHPQNRSLARWLERQGKRLQGTVPSLNLVLQKKMYSHPQQQN
notes: also called mCTACK; CCL27
